Target: Toll-like Receptor 5 (TLR5) constitutively expressed by HEK293 cells (UniProt O60602)
Assay: cell-based or functional assay

B1: STF2.HA1-2mutHis(PR8), produced in Baculovirus (protein)
chain: AQVINTNSLSLLTQNNLNKSQSALGTAIERLSSGLRINSAKDDAAGQAIANRFTANIKGLTQASRNANDGISIAQTTEGALNEINNNLQRVRELAVQSANSTNSQSDLDSIQAEITQRLNEIDRVSGQTQFNGVKVLAQDNTLTIQVGANDGETIDIDLKQINSQTLGLDSLNVQKAYDVKDTAVTTKAYANNGTTLDVSGLDDAAIKAATGGTNGTASVTGGAVKFDADNNKYFVTIGGFTGADAAKNGDYEVNVATDGTVTLAAGATKTTMPAGATTKTEVQELKDTPAVVSADAKNALIAGGVDATDANGAELVKMSYTDKNGKTIEGGYALKAGDKYYAADYDEATGAIKAKTTSYTAADGTTKTAANQLGGVDGKTEVVTIDGKTYNASKAAGHDFKAQPELAEAAAKTTENPLQKIDAALAQVDALRSDLGAVQNRFNSAITNLGNTVNNLSEARSRIEDSDYATEVSNMSRAQILQQAGTSVLAQANQVPQNVLSLLASGSGSGSKGAAPLQLGKCNIAGWLLGNPECDPLLPVRSWSDIAETPNSENGICYPGDFIDYEELREQLSSVSSFERFEIFPKESSWPNHNTNGVTAACSHEGKSSFYRNLLWLTEKEGSYPKLKNSYVNKKGKEVLVLWGIHHPPNSKEQQNLYQNENAYVSVVTSNYNRRFTPEIAERPKVRDQAGRMNYYWTLLKPGDTIIFEANGNLIAPMYAFALSRGFGSGIITSHHHHHH
Work on B1 yielded a TLR activity (EC50, ng/ml) of 900 ng/mL.

B2: ngSTF2.HA1-1His(PR8), produced in Baculovirus (protein)
chain: AQVINTNSLSLLTQNNLQKSQSALGTAIERLSSGLRINSAKDDAAGQAIANRFTANIKGLTQASRNANDGISIAQTTEGALNEINNNLQRVRELAVQSAQSTNSQSDLDSIQAEITQRLNEIDRVSGQTQFNGVKVLAQDNTLTIQVGANDGETIDIDLKQINSQTLGLDSLNVQKAYDVKDTAVTTKAYANQGTTLDVSGLDDAAIKAATGGTQGTASVTGGAVKFDADNNKYFVTIGGFTGADAAKNGDYEVNVATDGTVTLAAGATKTTMPAGATTKTEVQELKDTPAVVSADAKNALIAGGVDATDANGAELVKMSYTDKNGKTIEGGYALKAGDKYYAADYDEATGAIKAKTTSYTAADGTTKTAANQLGGVDGKTEVVTIDGKTYQASKAAGHDFKAQPELAEAAAKTTENPLQKIDAALAQVDALRSDLGAVQNRFNSAITNLGNTVNQLSEARSRIEDSDYATEVSQMSRAQILQQAGTSVLAQANQVPQNVLSLLASGSGSGSSHNGKLCRLKGIAPLQLGKCNIAGWLLGNPECDPLLPVRSWSYIVETPNSENGICYPGDFIDYEELREQLSSVSSFERFEIFPKESSWPNHNTNGVTAACSHEGKSSFYRNLLWLTEKEGSYPKLKNSYVNKKGKEVLVLWGIHHPPNSKEQQNLYQNENAYVSVVTSNYNRRFTPEIAERPKVRDQAGRMNYYWTLLKPGDTIIFEANGNLIAPMYAFALSRGFGSGIITSQASMHECNTKCQTPLGAIQSSLPYQNIHPVTIGECPKYVRHHHHHH
B2 showed a TLR activity (EC50, ng/ml) of 30 ng/mL.

B3: STF2.HA1-1His(PR8), produced in E. coli (protein)
chain: MAQVINTNSLSLLTQNNLNKSQSALGTAIERLSSGLRINSAKDDAAGQAIANRFTANIKGLTQASRNANDGISIAQTTEGALNEINNNLQRVRELAVQSANSTNSQSDLDSIQAEITQRLNEIDRVSGQTQFNGVKVLAQDNTLTIQVGANDGETIDIDLKQINSQTLGLDSLNVQKAYDVKDTAVTTKAYANNGTTLDVSGLDDAAIKAATGGTNGTASVTGGAVKFDADNNKYFVTIGGFTGADAAKNGDYEVNVATDGTVTLAAGATKTTMPAGATTKTEVQELKDTPAVVSADAKNALIAGGVDATDANGAELVKMSYTDKNGKTIEGGYALKAGDKYYAADYDEATGAIKAKTTSYTAADGTTKTAANQLGGVDGKTEVVTIDGKTYNASKAAGHDFKAQPELAEAAAKTTENPLQKIDAALAQVDALRSDLGAVQNRFNSAITNLGNTVNNLSEARSRIEDSDYATEVSNMSRAQILQQAGTSVLAQANQVPQNVLSLLASHNGKLCRLKGIAPLQLGKCNIAGWLLGNPECDPLLPVRSWSYIVETPNSENGICYPGDFIDYEELREQLSSVSSFERFEIFPKESSWPNHNTNGVTAACSHEGKSSFYRNLLWLTEKEGSYPKLKNSYVNKKGKEVLVLWGIHHPPNSKEQQNLYQNENAYVSVVTSNYNRRFTPEIAERPKVRDQAGRMNYYWTLLKPGDTIIFEANGNLIAPMYAFALSRGFGSGIITSNASMHECNTKCQTPLGAINSSLPYQNIHPVTIGECPKYVRHHHHHH
Work on B3 yielded a TLR5 activity (EC50, ng/ml) of 0.2 ng/mL.

B4: STF2.HA1-2(PR8), produced in E. coli (protein)
chain: MAQVINTNSLSLLTQNNLNKSQSALGTAIERLSSGLRINSAKDDAAGQAIANRFTANIKGLTQASRNANDGISIAQTTEGALNEINNNLQRVRELAVQSANSTNSQSDLDSIQAEITQRLNEIDRVSGQTQFNGVKVLAQDNTLTIQVGANDGETIDIDLKQINSQTLGLDSLNVQKAYDVKDTAVTTKAYANNGTTLDVSGLDDAAIKAATGGTNGTASVTGGAVKFDADNNKYFVTIGGFTGADAAKNGDYEVNVATDGTVTLAAGATKTTMPAGATTKTEVQELKDTPAVVSADAKNALIAGGVDATDANGAELVKMSYTDKNGKTIEGGYALKAGDKYYAADYDEATGAIKAKTTSYTAADGTTKTAANQLGGVDGKTEVVTIDGKTYNASKAAGHDFKAQPELAEAAAKTTENPLQKIDAALAQVDALRSDLGAVQNRFNSAITNLGNTVNNLSEARSRIEDSDYATEVSNMSRAQILQQAGTSVLAQANQVPQNVLSLLAKGIAPLQLGKCNIAGWLLGNPECDPLLPVRSWSYIVETPNSENGICYPGDFIDYEELREQLSSVSSFERFEIFPKESSWPNHNTNGVTAACSHEGKSSFYRNLLWLTEKEGSYPKLKNSYVNKKGKEVLVLWGIHHPPNSKEQQNLYQNENAYVSVVTSNYNRRFTPEIAERPKVRDQAGRMNYYWTLLKPGDTIIFEANGNLIAPMYAFALSRGFGSGIITS
Binder B4 has a TLR5 activity (EC50, ng/ml) of 0.15 ng/mL.

B5: STF2.HA1-2(PR8)mut, produced in E. coli (protein)
chain: MAQVINTNSLSLLTQNNLNKSQSALGTAIERLSSGLRINSAKDDAAGQAIANRFTANIKGLTQASRNANDGISIAQTTEGALNEINNNLQRVRELAVQSANSTNSQSDLDSIQAEITQRLNEIDRVSGQTQFNGVKVLAQDNTLTIQVGANDGETIDIDLKQINSQTLGLDSLNVQKAYDVKDTAVTTKAYANNGTTLDVSGLDDAAIKAATGGTNGTASVTGGAVKFDADNNKYFVTIGGFTGADAAKNGDYEVNVATDGTVTLAAGATKTTMPAGATTKTEVQELKDTPAVVSADAKNALIAGGVDATDANGAELVKMSYTDKNGKTIEGGYALKAGDKYYAADYDEATGAIKAKTTSYTAADGTTKTAANQLGGVDGKTEVVTIDGKTYNASKAAGHDFKAQPELAEAAAKTTENPLQKIDAALAQVDALRSDLGAVQNRFNSAITNLGNTVNNLSEARSRIEDSDYATEVSNMSRAQILQQAGTSVLAQANQVPQNVLSLLAKGAAPLQLGKCNIAGWLLGNPECDPLLPVRSWSDIAETPNSENGICYPGDFIDYEELREQLSSVSSFERFEIFPKESSWPNHNTNGVTAACSHEGKSSFYRNLLWLTEKEGSYPKLKNSYVNKKGKEVLVLWGIHHPPNSKEQQNLYQNENAYVSVVTSNYNRRFTPEIAERPKVRDQAGRMNYYWTLLKPGDTIIFEANGNLIAPMYAFALSRGFGSGIITS
In the case of B5, the TLR5 activity (EC50, ng/ml) is reported as 1.2 ng/mL.

B6: STF2.EIII+ (protein)
chain: MAQVINTNSLSLLTQNNLNKSQSALGTAIERLSSGLRINSAKDDAAGQAIANRFTANIKGLTQASRNANDGISIAQTTEGALNEINNNLQRVRELAVQSANSTNSQSDLDSIQAEITQRLNEIDRVSGQTQFNGVKVLAQDNTLTIQVGANDGETIDIDLKQINSQTLGLDSLNVQKAYDVKDTAVTTKAYANNGTTLDVSGLDDAAIKAATGGTNGTASVTGGAVKFDADNNKYFVTIGGFTGADAAKNGDYEVNVATDGTVTLAAGATKTTMPAGATTKTEVQELKDTPAVVSADAKNALIAGGVDATDANGAELVKMSYTDKNGKTIEGGYALKAGDKYYAADYDEATGAIKAKTTSYTAADGTTKTAANQLGGVDGKTEVVTIDGKTYNASKAAGHDFKAQPELAEAAAKTTENPLQKIDAALAQVDALRSDLGAVQNRFNSAITNLGNTVNNLSEARSRIEDSDYATEVSNMSRAQILQQAGTSVLAQANQVPQNVLSLLRKGNSKLEGQLEFPRTSMEKLQLKGTTYGVCSKAFKFLGTPADTGHGTVVLELQYTGTDGPCKVPISSVASLNDLTPVGRLVTVNPFVSVATANAKVLIELEPPFGDSYIVVGRGEQQINHHWHKSGSSIGK
In the case of B6, the TLR-5 EC50 (batch 052) is reported as > 5000 ng/mL, the TLR-5 EC50 (batch 054) is reported as 1200 ng/mL and the TLR-5 EC50 (batch 057) is reported as 198 ng/mL.

B7: STF2.HA1-2His(PR8), produced in Baculovirus (protein)
chain: AQVINTNSLSLLTQNNLNKSQSALGTAIERLSSGLRINSAKDDAAGQAIANRFTANIKGLTQASRNANDGISIAQTTEGALNEINNNLQRVRELAVQSANSTNSQSDLDSIQAEITQRLNEIDRVSGQTQFNGVKVLAQDNTLTIQVGANDGETIDIDLKQINSQTLGLDSLNVQKAYDVKDTAVTTKAYANNGTTLDVSGLDDAAIKAATGGTNGTASVTGGAVKFDADNNKYFVTIGGFTGADAAKNGDYEVNVATDGTVTLAAGATKTTMPAGATTKTEVQELKDTPAVVSADAKNALIAGGVDATDANGAELVKMSYTDKNGKTIEGGYALKAGDKYYAADYDEATGAIKAKTTSYTAADGTTKTAANQLGGVDGKTEVVTIDGKTYNASKAAGHDFKAQPELAEAAAKTTENPLQKIDAALAQVDALRSDLGAVQNRFNSAITNLGNTVNNLSEARSRIEDSDYATEVSNMSRAQILQQAGTSVLAQANQVPQNVLSLLASGSGSGSKGIAPQLGKCNIAGWLLGNPECDPLLPVRSWSYIVETPNSENGICYPGDFIDYEELREQLSSVSSFERFEIFPKESSWPNHNTNGVTAACSHEGKSSFYRNLLWLTEKEGSYPKLKNSYVNKKGKEVLVLWGIHHPPNSKEQQNLYQNENAYVSVVTSNYNRRFTPEIAERPKVRDQAGRMNYYWTLLKPGDTIIFEANGNLIAPMYAFALSRGFGSGIITSHHHHHH
With B7 the TLR activity (EC50, ng/ml) was 9 ng/mL.

B8: ngSTF2.HA1-2mutHis(PR8), produced in Baculovirus (protein)
chain: AQVINTNSLSLLTQNNLQKSQSALGTAIERLSSGLRINSAKDDAAGQAIANRFTANIKGLTQASRNANDGISIAQTTEGALNEINNNLQRVRELAVQSAQSTNSQSDLDSIQAEITQRLNEIDRVSGQTQFNGVKVLAQDNTLTIQVGANDGETIDIDLKQINSQTLGLDSLNVQKAYDVKDTAVTTKAYANQGTTLDVSGLDDAAIKAATGGTQGTASVTGGAVKFDADNNKYFVTIGGFTGADAAKNGDYEVNVATDGTVTLAAGATKTTMPAGATTKTEVQELKDTPAVVSADAKNALIAGGVDATDANGAELVKMSYTDKNGKTIEGGYALKAGDKYYAADYDEATGAIKAKTTSYTAADGTTKTAANQLGGVDGKTEVVTIDGKTYQASKAAGHDFKAQPELAEAAAKTTENPLQKIDAALAQVDALRSDLGAVQNRFNSAITNLGNTVNQLSEARSRIEDSDYATEVSQMSRAQILQQAGTSVLAQANQVPQNVLSLLASGSGSGSKGAAPQLGKCNIAGWLLGNPECDPLLPVRSWSDIAETPNSENGICYPGDFIDYEELREQLSSVSSFERFEIFPKESSWPNHNTNGVTAACSHEGKSSFYRNLLWLTEKEGSYPKLKNSYVNKKGKEVLVLWGIHHPPNSKEQQNLYQNENAYVSVVTSNYNRRFTPEIAERPKVRDQAGRMNYYWTLLKPGDTIIFEANGNLIAPMYAFALSRGFGSGIITSHHHHHH
B8 was tested, and the TLR activity (EC50, ng/ml) was 9 ng/mL.
